Assay results: PMC8360832, “Butyryl/Caproyl-CoA:Acetate CoA-transferase: cloning, expression and characterization of the key enzyme involved in medium-chain fatty acid biosynthesis” (Bioscience Reports, 2021)

Substrate: CCCC(=O)SCCNC(=O)CCNC(=O)[C@H](O)C(C)(C)COP(=O)(O)OP(=O)(O)OC[C@H]1O[C@@H](n2cnc3c(N)ncnc32)[C@H](O)[C@@H]1OP(=O)(O)O
Assay: purified protein
Assay type: biochemical, Clostridium tyrobutyricum
Conditions: 200 mM sodium acetate, 100 mM potassium phosphate pH 7, 25 °C

B1: BEY8-CoAT (BCoAT) (Clostridium tyrobutyricum DIVETGP) (protein)
chain: MSFEELYKSKVVSADEAVSHIKSGDKIVFGHACAEPQVLLNALVKNKEKYKNVELYHMIPKGETNYAEPGVEKYIHDNSFFTGKGTSEAIQEGRADFIPVFFSEIPRLFKKGYIPVDVALIEVSKPDEHGYCSFGVSNDYIHAGAECAKLVIAEVNENMPRVFGNNFIHVSDIDYIVESSRPVVEMQPSKIGDVEKAIGKYCASLVEDGSTLQLGIGAIPDAVLLFLKDKKDLGIHSEMISDGVVELVKAGVITNKKKTLHPGKIVVTFLMGTKKLYDFIDNNPEVESHPVDYVNNPTVIMKNCKMVCINSCVEIDLMGQICSESIGLKQISGVGGQIDFTRGASMAEDGKSIIAIPSTAAHGKVSRIVPFLNQGAAITTSRNDVHYVITEYGIAQLRGKTLKQRARELIK
notes: full-length, His tag (N-terminal), pET28a, E. coli BL21 (DE3), Ni-NTA; gene 1233 bp, 46 kDa
With B1 the Km was 370 ± 4.1 µM, the kcat was 0.232 ± 0.0117 s⁻¹ and the kcat/Km was 628.3 ± 3.33 M⁻¹ s⁻¹.
